Data reported in patent publication US20250230251A1 (Bristol-Myers Squibb, published 2025).
Where two headings read alike, the source gives them in different places.

Columns and labels:
[1] = target: T1, huIL-18Rβ-HisAvi (human, UniProt O95256 20-356, biotinylated in the Octet blocking assay); test: SPR T200, pH 7; sample 2 w 40C
T1 construct: Soluble analyte in all SPR runs; captured on streptavidin sensors in the Octet assay; also called human IL-18Rβ; human IL-18Rβ-Avi-His
T1 sequence: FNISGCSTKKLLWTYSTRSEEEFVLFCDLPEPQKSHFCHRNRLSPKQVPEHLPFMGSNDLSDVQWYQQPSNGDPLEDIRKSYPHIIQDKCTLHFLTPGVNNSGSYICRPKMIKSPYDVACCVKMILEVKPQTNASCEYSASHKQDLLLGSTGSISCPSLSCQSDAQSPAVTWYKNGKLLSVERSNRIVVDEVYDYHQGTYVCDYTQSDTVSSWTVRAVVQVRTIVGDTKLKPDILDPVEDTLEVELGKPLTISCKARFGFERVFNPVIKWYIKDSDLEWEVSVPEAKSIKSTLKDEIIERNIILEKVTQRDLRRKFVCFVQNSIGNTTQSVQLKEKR

[2] = target: T2, human IL-18Rβ on cells (human, UniProt O95256 20-599); test: cell-based or functional assay
T2 sequence: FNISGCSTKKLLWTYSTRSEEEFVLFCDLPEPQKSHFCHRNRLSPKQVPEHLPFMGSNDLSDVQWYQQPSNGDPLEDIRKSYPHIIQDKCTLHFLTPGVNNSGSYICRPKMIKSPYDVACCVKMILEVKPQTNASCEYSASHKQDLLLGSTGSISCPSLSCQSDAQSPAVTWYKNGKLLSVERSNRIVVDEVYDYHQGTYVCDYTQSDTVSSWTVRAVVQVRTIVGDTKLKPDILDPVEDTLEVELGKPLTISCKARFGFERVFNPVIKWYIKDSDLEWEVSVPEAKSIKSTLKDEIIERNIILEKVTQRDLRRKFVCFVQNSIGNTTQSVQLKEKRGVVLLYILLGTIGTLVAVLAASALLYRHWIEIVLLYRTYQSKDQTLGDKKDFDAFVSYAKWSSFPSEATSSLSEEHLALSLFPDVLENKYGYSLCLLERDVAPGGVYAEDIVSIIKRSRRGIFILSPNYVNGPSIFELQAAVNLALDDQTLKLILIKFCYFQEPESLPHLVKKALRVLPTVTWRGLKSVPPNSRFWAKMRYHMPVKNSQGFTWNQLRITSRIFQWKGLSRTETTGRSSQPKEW

[3] = target: T1, huIL-18Rβ-HisAvi; test: SPR T200, mAb on anti-hFc, 37C, pH 7.4
[4] = target: T3, cyIL-18Rβ-HisAvi (cynomolgus monkey); test: SPR T200, mAb on anti-hFc, 37C, pH 7.4
T3 construct: Soluble analyte in SPR; also called cyno IL-18Rβ; cynomolgus monkey IL-18Rβ
T3 chain: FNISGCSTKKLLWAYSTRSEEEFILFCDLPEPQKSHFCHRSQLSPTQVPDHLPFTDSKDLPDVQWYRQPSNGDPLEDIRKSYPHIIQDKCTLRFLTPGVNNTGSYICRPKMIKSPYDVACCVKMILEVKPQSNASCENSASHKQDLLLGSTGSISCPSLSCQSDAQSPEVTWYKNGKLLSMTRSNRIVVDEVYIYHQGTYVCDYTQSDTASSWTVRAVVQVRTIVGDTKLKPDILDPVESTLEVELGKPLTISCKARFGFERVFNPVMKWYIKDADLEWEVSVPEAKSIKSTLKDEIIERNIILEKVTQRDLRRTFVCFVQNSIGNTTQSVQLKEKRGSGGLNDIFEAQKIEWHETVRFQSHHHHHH

[5] = target: T1, huIL-18Rβ-HisAvi; test: SPR T200, pH 7; sample 4 w 4C
[6] = target: T1, huIL-18Rβ-HisAvi; test: SPR T200, mAb on anti-hFc, 37C, pH 6
[7] = target: T3, cyIL-18Rβ-HisAvi; test: SPR T200, mAb on anti-hFc, 37C, pH 6
[8] = target: T1, huIL-18Rβ-HisAvi; test: SPR T200, pH 7; sample 4 w 40C
[9] = target: T1, huIL-18Rβ-HisAvi; test: SPR T200, pH 7; sample T0
[10] = target: T1, huIL-18Rβ-HisAvi; test: SPR T200, pH 7.4; sample stored at pH 6, 4 w 40C
[11] = target: T1, huIL-18Rβ-HisAvi; test: SPR T200, pH 5 against pH 7.4
[12] = target: T1, huIL-18Rβ-HisAvi; test: SPR T200, pH 7.4; sample stored at pH 8, 4 w 4C
[13] = target: T1, huIL-18Rβ-HisAvi; test: SPR T200, pH 7.4; sample stored at pH 8, T0
[14] = target: T2, human IL-18Rβ on cells; test: cell-based or functional assay; remark: listed apart in the source
[15] = target: T1, huIL-18Rβ-HisAvi; test: SPR T200, mAb on anti-hFc, 37C, pH 7.4; remark: listed apart in the source
[16] = target: T1, huIL-18Rβ-HisAvi; test: SPR T200, mAb on anti-hFc, 37C, pH 6; remark: listed apart in the source
[17] = target: T1, huIL-18Rβ-HisAvi; test: SPR Biacore T200, mAb captured on anti-human Fc, huIL-18Rβ-HisAvi as analyte, PBST pH 6.0, 37 °C, 1:1 Binding fit
[18] = target: T1, huIL-18Rβ-HisAvi; test: SPR screen, 1:1 fit
[19] = target: T1, huIL-18Rβ-HisAvi; test: SPR T200, pH 7.4; sample stored at pH 6, 4 w 4C
[20] = target: T2, human IL-18Rβ on cells; test: cell-based or functional assay; remark: listed apart in the source
[21] = target: T1, huIL-18Rβ-HisAvi; test: SPR T200, mAb on anti-hFc, 37C, pH 7.4; sample stored at pH 6, T0
[22] = target: T1, huIL-18Rβ-HisAvi; test: SPR T200, pH 7.4; sample stored at pH 8, 4 w 40C
[23] = target: the molecule itself; test: clone self-interaction BLI, antibody on AHQ sensor against 1 µM of the same antibody
[24] = target: T1, huIL-18Rβ-HisAvi; test: SPR T200, mAb on anti-hFc, 37C, pH 7.4; remark: listed apart in the source
[25] = target: T2, human IL-18Rβ on cells; test: cell-based or functional assay; remark: listed apart in the source
[26] = target: T1, huIL-18Rβ-HisAvi; test: SPR T200, mAb on anti-hFc, 37C, pH 5
[27] = target: T1, huIL-18Rβ-HisAvi; test: SPR Biacore T200, mAb captured on anti-human Fc, huIL-18Rβ-HisAvi as analyte, PBST pH 5.5, 37 °C, 1:1 Binding fit

B1: P21-V1 (antibody, human IgG1, kappa, V domains shown)
VH: QVQLQESGPGLVKPSETLSLTCTVSGGSISNYYWTWIRQPPGKGLEWIGYISDSGSTNYNPSLKSRVTISVDTSKNQFSLKLSSVTAADTAVYYCARETIVVRGFYFYVMDVWGQGTTVTVSS
VL: AIQLTQSPSSLSASVGDRVTITCRASQGISSALAWYQQKPGKAPKLLIYEASNWESGVPSRFSGSGSGTDFTLTISSLQPEDFATYYCQQFNSYPWTFGQGTKVEIKR
notes: Variant of P21
Kd [1]: 180 pM | koff [1]: 4.9e-05 s⁻¹ | kon [1]: 270000 M⁻¹ s⁻¹ | Average IC50, LPS+IL-12 dependent IFNg production, human whole blood [2]: 1230 pM | Kd [3]: 630 pM | koff [3]: 0.00022 s⁻¹ | kon [3]: 360000 M⁻¹ s⁻¹ | Kd [4]: 8700 pM | koff [4]: 0.0047 s⁻¹ | kon [4]: 540000 M⁻¹ s⁻¹ | Kd [5]: 240 pM | koff [5]: 6.5e-05 s⁻¹ | kon [5]: 270000 M⁻¹ s⁻¹ | Kd [6]: 370 pM | koff [6]: 0.00017 s⁻¹ | kon [6]: 460000 M⁻¹ s⁻¹ | Kd [7]: 13000 pM | koff [7]: 0.0031 s⁻¹ | kon [7]: 250000 M⁻¹ s⁻¹ | Kd [8]: 510 pM | koff [8]: 0.00014 s⁻¹ | kon [8]: 280000 M⁻¹ s⁻¹ | Kd [9]: 260 pM | koff [9]: 7.2e-05 s⁻¹ | kon [9]: 270000 M⁻¹ s⁻¹

B2: P8 (antibody, human IgG1, kappa)
heavy: QVQLVQSGAEVKKPGASVRVSCKASGYTFTSYYMHWVRQAPGQGLEWMGIINPRGGYTTYAQKFQGRVTMTRDTSTSTVYMELSSLRSEDTAVYYCAKEGRVSPTDYYGMDVWGQGTTVTVSSASTKGPSVFPLAPSSKSTSGGTAALGCLVKDYFPEPVTVSWNSGALTSGVHTFPAVLQSSGLYSLSSVVTVPSSSLGTQTYICNVNHKPSNTKVDKRVEPKSCDKTHTCPPCPAPEAEGAPSVFLFPPKPKDTLMISRTPEVTCVVVDVSHEDPEVKFNWYVDGVEVHNAKTKPREEQYNSTYRVVSVLTVLHQDWLNGKEYKCKVSNKALPAPIEKTISKAKGQPREPQVYTLPPSREEMTKNQVSLTCLVKGFYPSDIAVEWESNGQPENNYKTTPPVLDSDGSFFLYSKLTVDKSRWQQGNVFSCSVMHEALHNHYTQKSLSLSPG
light: not shown
notes: Human IgG
Kd [10]: 600 pM | koff [10]: 0.00044 s⁻¹ | kon [10]: 730000 M⁻¹ s⁻¹ | KD ratio (KD pH 5/KD pH 7) [11]: 0.33 | kd ratio (kd pH 5/kd pH 7) [11]: 0.57 | Kd [12]: 810 pM | koff [12]: 0.00043 s⁻¹ | kon [12]: 520000 M⁻¹ s⁻¹ | Kd [13]: 850 pM | koff [13]: 0.00046 s⁻¹ | kon [13]: 540000 M⁻¹ s⁻¹ | IC50, IL-18-induced IFNγ release, KG-1 cells [14]: 300 pM | Kd [15]: 960 pM | koff [15]: 0.0005 s⁻¹ | kon [15]: 520000 M⁻¹ s⁻¹ | Kd [16]: 180 pM | koff [16]: 0.00024 s⁻¹ | kon [16]: 1.4e+06 M⁻¹ s⁻¹ | Kd [17]: 1240 pM | koff [17]: 0.000504 s⁻¹ | kon [17]: 405000 M⁻¹ s⁻¹ | Kd [18]: 94 pM | Kd [19]: 800 pM | koff [19]: 0.00045 s⁻¹ | kon [19]: 570000 M⁻¹ s⁻¹ | IC50, LPS+IL-12 dependent IFNg production, human whole blood [20]: 300 pM | y-max, LPS+IL-12 dependent IFNg production, human whole blood [20]: 98% | Kd [21]: 830 pM | koff [21]: 0.00047 s⁻¹ | kon [21]: 570000 M⁻¹ s⁻¹ | Kd [22]: 780 pM | koff [22]: 0.00046 s⁻¹ | kon [22]: 590000 M⁻¹ s⁻¹ | Average CSI-BLI ΔResponse [23]: -0.01 nm | Kd [24]: 1200 pM | koff [24]: 0.00038 s⁻¹ | kon [24]: 310000 M⁻¹ s⁻¹ | IC50, LPS+IL-12 dependent IFNg production, human whole blood [25]: 1120 pM | Kd [26]: 410 pM | koff [26]: 0.00022 s⁻¹ | kon [26]: 530000 M⁻¹ s⁻¹ | Kd [27]: 1080 pM | koff [27]: 0.000511 s⁻¹ | kon [27]: 472000 M⁻¹ s⁻¹
